We go through 11 molecules from patent US20250295737A1 (AstraZeneca / MedImmune, published 2025).

Positions count from the first letter of the chain named.

T1: mouse RXFP1 (mouse, UniProt Q6R6I7 1-758)
T1 sequence (looked up): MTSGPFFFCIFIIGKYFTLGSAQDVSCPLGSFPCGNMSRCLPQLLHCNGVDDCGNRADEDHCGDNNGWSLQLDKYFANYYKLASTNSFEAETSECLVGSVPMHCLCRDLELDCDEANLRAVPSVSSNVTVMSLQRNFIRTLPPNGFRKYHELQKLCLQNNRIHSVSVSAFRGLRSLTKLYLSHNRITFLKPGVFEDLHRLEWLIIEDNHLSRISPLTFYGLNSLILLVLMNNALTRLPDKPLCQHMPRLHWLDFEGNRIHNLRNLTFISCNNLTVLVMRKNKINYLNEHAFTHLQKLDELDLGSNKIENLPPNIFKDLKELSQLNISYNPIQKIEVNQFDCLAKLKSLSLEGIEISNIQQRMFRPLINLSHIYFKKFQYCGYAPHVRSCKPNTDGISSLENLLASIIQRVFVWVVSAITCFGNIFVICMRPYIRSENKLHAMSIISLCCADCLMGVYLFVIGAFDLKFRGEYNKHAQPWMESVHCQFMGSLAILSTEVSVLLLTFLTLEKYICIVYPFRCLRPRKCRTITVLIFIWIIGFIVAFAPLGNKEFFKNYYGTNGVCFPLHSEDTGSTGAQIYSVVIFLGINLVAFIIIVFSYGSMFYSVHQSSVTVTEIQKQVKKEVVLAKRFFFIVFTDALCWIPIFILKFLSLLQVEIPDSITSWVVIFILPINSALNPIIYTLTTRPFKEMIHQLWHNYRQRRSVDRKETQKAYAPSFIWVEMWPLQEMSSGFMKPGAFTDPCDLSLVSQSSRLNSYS

T2: human RXFP1 (human, UniProt Q9HBX9 1-757)
T2 sequence (looked up): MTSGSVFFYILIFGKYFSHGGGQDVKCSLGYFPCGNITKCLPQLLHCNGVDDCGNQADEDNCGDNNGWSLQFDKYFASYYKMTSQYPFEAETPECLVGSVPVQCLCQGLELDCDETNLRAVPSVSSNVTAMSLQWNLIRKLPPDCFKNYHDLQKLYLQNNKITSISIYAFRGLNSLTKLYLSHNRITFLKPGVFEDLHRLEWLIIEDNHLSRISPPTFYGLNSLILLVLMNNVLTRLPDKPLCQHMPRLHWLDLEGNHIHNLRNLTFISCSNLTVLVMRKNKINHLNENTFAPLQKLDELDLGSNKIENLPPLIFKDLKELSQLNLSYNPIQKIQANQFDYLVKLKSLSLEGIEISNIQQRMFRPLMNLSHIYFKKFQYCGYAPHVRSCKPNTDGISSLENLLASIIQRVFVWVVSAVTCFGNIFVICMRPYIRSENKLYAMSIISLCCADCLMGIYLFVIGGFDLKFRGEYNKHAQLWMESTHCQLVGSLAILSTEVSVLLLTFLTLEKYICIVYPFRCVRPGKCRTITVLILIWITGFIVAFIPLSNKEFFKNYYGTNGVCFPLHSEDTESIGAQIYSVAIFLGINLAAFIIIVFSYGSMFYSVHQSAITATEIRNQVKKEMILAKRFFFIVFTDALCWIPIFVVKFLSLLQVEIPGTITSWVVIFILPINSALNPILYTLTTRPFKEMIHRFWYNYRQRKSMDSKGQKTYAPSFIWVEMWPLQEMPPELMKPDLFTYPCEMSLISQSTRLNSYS

B1: RELAX0039 (Fc fusion)
chain 1: DKTHTACPPCPAPEFEGGPSVFLFPPKPKDTLMISRTPEVTCVVVDVSHEDPEVKFNWYVDGVEVHNAKTKPREEQYNSTYRVVSVLTVLHQDWLNGKEYKCKVSNKALPASIEKTISKAKGQPREPQVYTLPPCREEMTKNQVSLWCLVKGFYPSDIAVEWESNGQPENNYKTTPPVLDSDGSFFLYSKLTVDKSRWQQGNVFSCSVMHEALHNHYTQKSLSLSPGGGGGSGGGGSGGGGSGGGGGSQLYSALANMCCHVGCTKRSLARFC
chain 2: DKTHTCPPCPAPEFEGGPSVFLFPPKPKDTLMISRTPEVTCVVVDVSHEDPEVKFNWYVDGVEVHNAKTKPREEQYNSTYRVVSVLTVLHQDWLNGKEYKCKVSNKALPASIEKTISKAKGQPREPQVCTLPPSREEMTKNQVSLSCAVKGFYPSDIAVEWESNGQPENNYKTTPPVLDSDGSFFLVSKLTVDKSRWQQGNVFSCSVMHEALHNHYTQKSLSLSPGGGGGSGGGGSGGGGSGGGGGSSWMEEVIKLCGRELVRAQIAICGMSTWS
B2: RELAX0040 (Fc fusion)
chain 1: B1 chain 1 with M257L
chain 2: B1 chain 2
B3: RELAX0052 (Fc fusion)
chain 1: B1 chain 1 with M257K, R266E
chain 2: B1 chain 2
B4: RELAX0041 (Fc fusion)
chain 1: B1 chain 1 with M257H
chain 2: B1 chain 2
B5: RELAX0043 (Fc fusion)
chain 1: B1 chain 1 with M257E
chain 2: B1 chain 2
B6: RELAX0110 (Fc fusion)
chain 1: DKTHTCPPCPAPEFEGGPSVFLFPPKPKDTLMISRTPEVTCVVVDVSHEDPEVKFNWYVDGVEVHNAKTKPREEQYNSTYRVVSVLTVLHQDWLNGKEYKCKVSNKALPASIEKTISKAKGQPREPQVYTLPPCREEMTKNQVSLWCLVKGFYPSDIAVEWESNGQPENNYKTTPPVLDSDGSFFLYSKLTVDKSRWQQGNVFSCSVMHEALHNHYTQKSLSLSPGGGGGSGGGGGSQLYSALANKCCHVGCTKRSLARFC
chain 2: DKTHTCPPCPAPEFEGGPSVFLFPPKPKDTLMISRTPEVTCVVVDVSHEDPEVKFNWYVDGVEVHNAKTKPREEQYNSTYRVVSVLTVLHQDWLNGKEYKCKVSNKALPASIEKTISKAKGQPREPQVYTLPPCREEMTKNQVSLWCLVKGFYPSDIAVEWESNGQPENNYKTTPPVLDSDGSFFLYSKLTVDKSRWQQGNVFSCSVMHEALHNHYTQKSLSLSPGAAPAPAPAPAPAPAGSSWMEEVIKLCGRELVRAQIAICGMSTWS
B7: RELAX0111 (Fc fusion)
chain 1: DKTHTCPPCPAPEFEGGPSVFLFPPKPKDTLMISRTPEVTCVVVDVSHEDPEVKFNWYVDGVEVHNAKTKPREEQYNSTYRVVSVLTVLHQDWLNGKEYKCKVSNKALPASIEKTISKAKGQPREPQVYTLPPCREEMTKNQVSLWCLVKGFYPSDIAVEWESNGQPENNYKTTPPVLDSDGSFFLYSKLTVDKSRWQQGNVFSCSVMHEALHNHYTQKSLSLSPGGGGGGSQLYSALANKCCHVGCTKRSLARFC
chain 2: B6 chain 2
B8: RELAX0105 (Fc fusion)
chain 1: DKTHTCPPCPAPEFEGGPSVFLFPPKPKDTLMISRTPEVTCVVVDVSHEDPEVKFNWYVDGVEVHNAKTKPREEQYNSTYRVVSVLTVLHQDWLNGKEYKCKVSNKALPASIEKTISKAKGQPREPQVYTLPPCREEMTKNQVSLWCLVKGFYPSDIAVEWESNGQPENNYKTTPPVLDSDGSFFLYSKLTVDKSRWQQGNVFSCSVMHEALHNHYTQKSLSLSPGGGGGSGGGGSGGGGGSQLYSALANKCCHVGCTKRSLARFC
chain 2: DKTHTCPPCPAPEFEGGPSVFLFPPKPKDTLMISRTPEVTCVVVDVSHEDPEVKFNWYVDGVEVHNAKTKPREEQYNSTYRVVSVLTVLHQDWLNGKEYKCKVSNKALPASIEKTISKAKGQPREPQVCTLPPSREEMTKNQVSLSCAVKGFYPSDIAVEWESNGQPENNYKTTPPVLDSDGSFFLVSKLTVDKSRWQQGNVFSCSVMHEALHNHYTQKSLSLSPGAPAPAPAPAPAPAPAPAPAGSSWMEEVIKLCGRELVRAQIAICGMSTWS
B9: RELAX0106 (Fc fusion)
chain 1: B6 chain 1
chain 2: B8 chain 2
B10: RELAX0107 (Fc fusion)
chain 1: B7 chain 1
chain 2: B8 chain 2
B11: RELAX0087 (Fc fusion)
chain 1: DKTHTCPPCPAPEFEGGPSVFLFPPKPKDTLMISRTPEVTCVVVDVSHEDPEVKFNWYVDGVEVHNAKTKPREEQYNSTYRVVSVLTVLHQDWLNGKEYKCKVSNKALPASIEKTISKAKGQPREPQVYTLPPCREEMTKNQVSLWCLVKGFYPSDIAVEWESNGQPENNYKTTPPVLDSDGSFFLYSKLTVDKSRWQQGNVFSCSVMHEALHNHYTQKSLSLSPGGGGGSGGGGSGGGGSGGGGGSQLYSALANKCCHVGCTKRSLARFC
chain 2: DKTHTCPPCPAPEFEGGPSVFLFPPKPKDTLMISRTPEVTCVVVDVSHEDPEVKFNWYVDGVEVHNAKTKPREEQYNSTYRVVSVLTVLHQDWLNGKEYKCKVSNKALPASIEKTISKAKGQPREPQVCTLPPSREEMTKNQVSLSCAVKGFYPSDIAVEWESNGQPENNYKTTPPVLDSDGSFFLVSKLTVDKSRWQQGNVFSCSVMHEALHNHYTQKSLSLSPGGGGGSGGGGSGGGGGSSWMEEVIKLCGRELVRAQIAICGMSTWS

In the first assay the target is T1, mouse RXFP1. Kind of assay: cell-based or functional assay.
With B1, the “EC50 mRXFP1 (M), cAMP HTRF assay” value is 4.25e-11 M.
For B2, the “EC50 mRXFP1 (M), cAMP HTRF assay” value worked out at 2.92e-11 M.
B3: the “EC50 mRXFP1 (M), cAMP HTRF assay” value is 5.69e-11 M.
As for B4, the “EC50 mRXFP1 (M), cAMP HTRF assay” value came out at 3.17e-11 M.
Take B5: the “EC50 mRXFP1 (M), cAMP HTRF assay” value stood at 5.58e-11 M.

For another assay, the target named is T3, human RXFP2 (human, UniProt Q8WXD0 1-754). Kind of assay: cell-based or functional assay.
T3 sequence (Q8WXD0 whole entry): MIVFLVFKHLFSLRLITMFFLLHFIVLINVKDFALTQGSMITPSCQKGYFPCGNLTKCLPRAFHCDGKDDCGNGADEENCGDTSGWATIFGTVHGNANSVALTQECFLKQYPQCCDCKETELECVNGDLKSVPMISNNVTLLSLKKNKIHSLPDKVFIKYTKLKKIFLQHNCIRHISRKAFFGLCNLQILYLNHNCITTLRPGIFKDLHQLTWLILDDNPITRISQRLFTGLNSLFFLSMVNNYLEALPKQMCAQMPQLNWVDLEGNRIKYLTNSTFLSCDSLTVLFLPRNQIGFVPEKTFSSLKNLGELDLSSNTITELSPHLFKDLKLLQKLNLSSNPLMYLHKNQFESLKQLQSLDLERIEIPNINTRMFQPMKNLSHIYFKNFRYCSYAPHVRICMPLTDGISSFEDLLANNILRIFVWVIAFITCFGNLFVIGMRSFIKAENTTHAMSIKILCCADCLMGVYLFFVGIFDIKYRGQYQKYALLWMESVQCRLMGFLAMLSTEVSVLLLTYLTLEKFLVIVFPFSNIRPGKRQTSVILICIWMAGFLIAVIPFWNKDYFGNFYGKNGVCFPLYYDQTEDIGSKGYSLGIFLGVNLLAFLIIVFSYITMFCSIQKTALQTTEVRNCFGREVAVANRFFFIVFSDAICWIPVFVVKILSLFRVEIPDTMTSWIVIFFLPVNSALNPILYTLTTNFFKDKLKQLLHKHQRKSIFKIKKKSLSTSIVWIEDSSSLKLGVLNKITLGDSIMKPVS
With B1, the “EC50 hRXFP2 (M), cAMP HTRF assay” value was determined as 1.08e-07 M.
In the case of B2, the “EC50 hRXFP2 (M), cAMP HTRF assay” value is > 1.27e-07 M.
On to B3, for which the “EC50 hRXFP2 (M), cAMP HTRF assay” value was 1.05e-07 M.
With B4, the “EC50 hRXFP2 (M), cAMP HTRF assay” value was 1.18e-07 M.
The same measure, in the same setting: for B5 the value was > 1.58e-07 M.

Another assay has as its target T2, human RXFP1. Kind of assay: cell-based or functional assay.
B1: the “EC50 hRXFP1 (M), cAMP HTRF assay” value was determined as 6.54e-11 M.
As for B2, the “EC50 hRXFP1 (M), cAMP HTRF assay” value was 5.92e-11 M.
B3: the “EC50 hRXFP1 (M), cAMP HTRF assay” value came to 9.67e-11 M.
On the same count and under the same terms, for B4 the value was 6.22e-11 M; for B5, 7.98e-11 M.

In the next assay the target is T1, mouse RXFP1. Kind of assay: cell-based or functional assay. This is another data set of the same source.
For B6, the “EC50 mRXFP1 (M), cAMP HTRF assay” value amounted to 1.11e-09 M.
Still for that read-out and setting: with B7 the figure was 1.24e-09 M; with B8, 1.49e-11 M.
As to B9, the “EC50 mRXFP1 (M), cAMP HTRF assay” value turned out to be 1.98e-11 M.
With B10, the “EC50 mRXFP1 (M), cAMP HTRF assay” value was 3.87e-11 M.
As to B11, the “EC50 mRXFP1 (M), cAMP HTRF assay” value turned out to be 3.48e-11 M.

In another assay the target is T3, human RXFP2. Nature of the assay: cell-based or functional assay. The source holds these as a separate data set.
Take B6: the “EC50 hRXFP2 (M), cAMP HTRF assay” value is > 6.07e-08 M.
On to B7, for which the “EC50 hRXFP2 (M), cAMP HTRF assay” value was > 6.06e-08 M.
Take B8: the “EC50 hRXFP2 (M), cAMP HTRF assay” value came out at 3.33e-08 M.
Regarding B9, the “EC50 hRXFP2 (M), cAMP HTRF assay” value worked out at 4.94e-08 M.
On the same count and under the same terms, for B10 the value was 1.22e-07 M; for B11, 3.63e-08 M.

Another assay addresses T2, human RXFP1. Nature of the assay: cell-based or functional assay. The source holds these as a separate data set.
As to B6, the “EC50 hRXFP1 (M), cAMP HTRF assay” value is 1.88e-09 M.
Consider B7, for which the “EC50 hRXFP1 (M), cAMP HTRF assay” value was 1.93e-09 M.
Same read-out and setting: for B8 the value was 7.12e-11 M; for B9, 6.96e-11 M; for B10, 8.09e-11 M.
With B11, the “EC50 hRXFP1 (M), cAMP HTRF assay” value came out at 4.89e-11 M.
